According to paper PMC4446440, “Structural and functional analysis reveals that human OASL binds dsRNA to enhance RIG-I signaling” (Nucleic Acids Research, 2015):

T1: OLD (OAS-like domain of OASL) wild type (Homo sapiens, UniProt Q15646 1-350)
T1 sequence: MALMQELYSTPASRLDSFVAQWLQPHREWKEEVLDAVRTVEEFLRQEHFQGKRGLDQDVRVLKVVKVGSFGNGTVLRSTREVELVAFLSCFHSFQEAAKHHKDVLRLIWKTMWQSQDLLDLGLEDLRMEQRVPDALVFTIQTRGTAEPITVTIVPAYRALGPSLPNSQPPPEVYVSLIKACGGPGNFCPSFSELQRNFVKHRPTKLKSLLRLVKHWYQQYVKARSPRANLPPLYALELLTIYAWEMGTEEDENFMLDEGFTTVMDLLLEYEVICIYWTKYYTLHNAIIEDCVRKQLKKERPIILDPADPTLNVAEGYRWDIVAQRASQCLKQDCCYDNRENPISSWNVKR

B1: 18 bp dsRNA (dsRNA)
RNA 1: GGCUUUUGACCUUUAUGC
RNA 2: GCAUAAAGGUCAAAAGCC
B2: full-length OASL (human 2'-5' oligoadenylate synthetase-like protein), recombinant from insect cells (natural protein, UniProt Q15646 1-514, looked up)
chain: MALMQELYSTPASRLDSFVAQWLQPHREWKEEVLDAVRTVEEFLRQEHFQGKRGLDQDVRVLKVVKVGSFGNGTVLRSTREVELVAFLSCFHSFQEAAKHHKDVLRLIWKTMWQSQDLLDLGLEDLRMEQRVPDALVFTIQTRGTAEPITVTIVPAYRALGPSLPNSQPPPEVYVSLIKACGGPGNFCPSFSELQRNFVKHRPTKLKSLLRLVKHWYQQYVKARSPRANLPPLYALELLTIYAWEMGTEEDENFMLDEGFTTVMDLLLEYEVICIYWTKYYTLHNAIIEDCVRKQLKKERPIILDPADPTLNVAEGYRWDIVAQRASQCLKQDCCYDNRENPISSWNVKRARDIHLTVEQRGYPDFNLIVNPYEPIRKVKEKIRRTRGYSGLQRLSFQVPGSERQLLSSRCSLAKYGIFSHTHIYLLETIPSEIQVFVKNPDGGSYAYAINPNSFILGLKQQIEDQQGLPKKQQQLEFQGQVLQDWLGLGIYGIQDSDTLILSKKKGEALFPAS
notes: human OASL, full length (printed as 61 kDa); OAS-like domain (residues 1-350) followed by two ubiquitin-like domains; also called OAS-like protein

What was measured:
[1] = molecular target: T1, OLD (OAS-like domain of OASL) wild type; assay: EMSA; OLD 2.4 uM, dsRNA 0-8.6 uM, protein stained; 1.5 mM Mg2+; 100 mM DL-malic acid pH 5.9, 200 (unit not given) Na2SO4, 300 mM NaCl, 1.5 mM MgCl2, 2 mM BME, 5% glycerol; 37 C 15 min; native PAGE in 0.5x TBE; details: protein: recombinant; tags: C-terminal 6xHis; blunt
[2] = molecular target: the molecule itself; assay: SEC; analytical, Superdex 200 PC3.2/30; OASL run in 50 mM Tris-HCl pH 9, 500 mM NaCl, 10% glycerol, 1.5 mM MgCl2, 1 M urea, 1 mM BME; calibrated with Blue Dextran and albumin

Binder | binding result [1] | binding result [2]
B1 | binds | 
B2 |  | binds
